The values below are quoted from earlier work in publication PMC5437010.

The pKi is the Ki on a negative log10 scale, so that one unit is a factor of ten.

pKi: −log10 of the molar value.

In the data set the target is factor XIa (Homo sapiens) (UniProt P03951).
UniProt P03951, sequence (P03951 388-625): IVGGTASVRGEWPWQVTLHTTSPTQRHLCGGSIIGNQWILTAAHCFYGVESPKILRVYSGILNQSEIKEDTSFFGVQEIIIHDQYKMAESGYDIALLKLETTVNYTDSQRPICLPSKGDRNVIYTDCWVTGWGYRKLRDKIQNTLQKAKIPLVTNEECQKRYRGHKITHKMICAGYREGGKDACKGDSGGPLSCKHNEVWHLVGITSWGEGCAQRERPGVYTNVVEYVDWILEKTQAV

Regarding KPI KPI (from UniProt P05067), the pKi is 9.40.
